Biological target: T1, human FcγRIIIa type V (allotype V158) extracellular domain with C-terminal His tag (human, UniProt P08637 17-208)
T1 construct: also called FcγRIIIaV
Experiment: SPR (Biacore), antibody captured, FcγR analyte

T1 sequence (P08637 other isoform, or with tags, fused parts or gaps): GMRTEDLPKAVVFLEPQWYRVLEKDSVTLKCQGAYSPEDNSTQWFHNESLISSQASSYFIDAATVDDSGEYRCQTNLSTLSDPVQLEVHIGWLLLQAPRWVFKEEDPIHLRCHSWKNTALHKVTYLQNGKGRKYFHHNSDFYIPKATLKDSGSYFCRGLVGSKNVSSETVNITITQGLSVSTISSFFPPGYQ

Binder	Kd [µM]
IL6R-2B002/IL6R-L (antibody, human IgG1, kappa, name in EU numbering, Alterations introduced into IL6R-B3; also called P238D/E233D; copies: 2 + 2) heavy: QVQLQESGPGLVKPSETLSLTCAVSGHSISHDHAWSWVRQPPGEGLEWIGFISYSGITNYNPSLQGRVTISRDNSKNTLYLQMNSLRAEDTAVYYCARSLARTTAMDYWGEGTLVTVSSASTKGPSVFPLAPSSKSTSGGTAALGCLVKDYFPEPVTVSWNSGALTSGVHTFPAVLQSSGLYSLSSVVTVPSSSLGTQTYICNVNHKPSNTKVDKKVEPKSCDKTHTCPPCPAPDLLGGDSVFLFPPKPKDTLMISRTPEVTCVVVDVSHEDPEVKFNWYVDGVEVHNAKTKPREEQYNSTYRVVSVLTVLHQDWLNGKEYKCKVSNKALPAPIEKTISKAKGQPREPQVYTLPPSRDELTKNQVSLTCLVKGFYPSDIAVEWESNGQPENNYKTTPPVLDSDGSFFLYSKLTVDKSRWQQGNVFSCSVMHEALHNHYTQESLSLSP light: not shown	53
IL6R-BP110/IL6R-L (antibody, human IgG1, kappa, name in EU numbering, Alterations introduced into IL6R-B3; also called P238D/H268N; copies: 2 + 2) heavy: QVQLQESGPGLVKPSETLSLTCAVSGHSISHDHAWSWVRQPPGEGLEWIGFISYSGITNYNPSLQGRVTISRDNSKNTLYLQMNSLRAEDTAVYYCARSLARTTAMDYWGEGTLVTVSSASTKGPSVFPLAPSSKSTSGGTAALGCLVKDYFPEPVTVSWNSGALTSGVHTFPAVLQSSGLYSLSSVVTVPSSSLGTQTYICNVNHKPSNTKVDKKVEPKSCDKTHTCPPCPAPELLGGDSVFLFPPKPKDTLMISRTPEVTCVVVDVSNEDPEVKFNWYVDGVEVHNAKTKPREEQYNSTYRVVSVLTVLHQDWLNGKEYKCKVSNKALPAPIEKTISKAKGQPREPQVYTLPPSRDELTKNQVSLTCLVKGFYPSDIAVEWESNGQPENNYKTTPPVLDSDGSFFLYSKLTVDKSRWQQGNVFSCSVMHEALHNHYTQESLSLSP light: not shown	64
IL6R-2B169/IL6R-L (antibody, human IgG1, kappa, name in EU numbering, Alterations introduced into IL6R-B3; also called P238D/V323I; copies: 2 + 2) heavy: QVQLQESGPGLVKPSETLSLTCAVSGHSISHDHAWSWVRQPPGEGLEWIGFISYSGITNYNPSLQGRVTISRDNSKNTLYLQMNSLRAEDTAVYYCARSLARTTAMDYWGEGTLVTVSSASTKGPSVFPLAPSSKSTSGGTAALGCLVKDYFPEPVTVSWNSGALTSGVHTFPAVLQSSGLYSLSSVVTVPSSSLGTQTYICNVNHKPSNTKVDKKVEPKSCDKTHTCPPCPAPELLGGDSVFLFPPKPKDTLMISRTPEVTCVVVDVSHEDPEVKFNWYVDGVEVHNAKTKPREEQYNSTYRVVSVLTVLHQDWLNGKEYKCKISNKALPAPIEKTISKAKGQPREPQVYTLPPSRDELTKNQVSLTCLVKGFYPSDIAVEWESNGQPENNYKTTPPVLDSDGSFFLYSKLTVDKSRWQQGNVFSCSVMHEALHNHYTQESLSLSP light: not shown	75
IL6R-BP106/IL6R-L (antibody, human IgG1, kappa, name in EU numbering, Alterations introduced into IL6R-B3; also called P238D/H268D; copies: 2 + 2) heavy: QVQLQESGPGLVKPSETLSLTCAVSGHSISHDHAWSWVRQPPGEGLEWIGFISYSGITNYNPSLQGRVTISRDNSKNTLYLQMNSLRAEDTAVYYCARSLARTTAMDYWGEGTLVTVSSASTKGPSVFPLAPSSKSTSGGTAALGCLVKDYFPEPVTVSWNSGALTSGVHTFPAVLQSSGLYSLSSVVTVPSSSLGTQTYICNVNHKPSNTKVDKKVEPKSCDKTHTCPPCPAPELLGGDSVFLFPPKPKDTLMISRTPEVTCVVVDVSDEDPEVKFNWYVDGVEVHNAKTKPREEQYNSTYRVVSVLTVLHQDWLNGKEYKCKVSNKALPAPIEKTISKAKGQPREPQVYTLPPSRDELTKNQVSLTCLVKGFYPSDIAVEWESNGQPENNYKTTPPVLDSDGSFFLYSKLTVDKSRWQQGNVFSCSVMHEALHNHYTQESLSLSP light: not shown	55
IL6R-2B128/IL6R-L (antibody, human IgG1, kappa, name in EU numbering, Alterations introduced into IL6R-B3; also called P238D/Y296D; copies: 2 + 2) heavy: QVQLQESGPGLVKPSETLSLTCAVSGHSISHDHAWSWVRQPPGEGLEWIGFISYSGITNYNPSLQGRVTISRDNSKNTLYLQMNSLRAEDTAVYYCARSLARTTAMDYWGEGTLVTVSSASTKGPSVFPLAPSSKSTSGGTAALGCLVKDYFPEPVTVSWNSGALTSGVHTFPAVLQSSGLYSLSSVVTVPSSSLGTQTYICNVNHKPSNTKVDKKVEPKSCDKTHTCPPCPAPELLGGDSVFLFPPKPKDTLMISRTPEVTCVVVDVSHEDPEVKFNWYVDGVEVHNAKTKPREEQDNSTYRVVSVLTVLHQDWLNGKEYKCKVSNKALPAPIEKTISKAKGQPREPQVYTLPPSRDELTKNQVSLTCLVKGFYPSDIAVEWESNGQPENNYKTTPPVLDSDGSFFLYSKLTVDKSRWQQGNVFSCSVMHEALHNHYTQESLSLSP light: not shown	72
IL6R-BP103/IL6R-L (antibody, human IgG1, kappa, name in EU numbering, Alterations introduced into IL6R-B3; also called P238D/S267V; copies: 2 + 2) heavy: QVQLQESGPGLVKPSETLSLTCAVSGHSISHDHAWSWVRQPPGEGLEWIGFISYSGITNYNPSLQGRVTISRDNSKNTLYLQMNSLRAEDTAVYYCARSLARTTAMDYWGEGTLVTVSSASTKGPSVFPLAPSSKSTSGGTAALGCLVKDYFPEPVTVSWNSGALTSGVHTFPAVLQSSGLYSLSSVVTVPSSSLGTQTYICNVNHKPSNTKVDKKVEPKSCDKTHTCPPCPAPELLGGDSVFLFPPKPKDTLMISRTPEVTCVVVDVVHEDPEVKFNWYVDGVEVHNAKTKPREEQYNSTYRVVSVLTVLHQDWLNGKEYKCKVSNKALPAPIEKTISKAKGQPREPQVYTLPPSRDELTKNQVSLTCLVKGFYPSDIAVEWESNGQPENNYKTTPPVLDSDGSFFLYSKLTVDKSRWQQGNVFSCSVMHEALHNHYTQESLSLSP light: not shown	110
IL6R-BP100/IL6R-L (antibody, human IgG1, kappa, name in EU numbering, Alterations introduced into IL6R-B3; also called P238D/S267A; copies: 2 + 2) heavy: QVQLQESGPGLVKPSETLSLTCAVSGHSISHDHAWSWVRQPPGEGLEWIGFISYSGITNYNPSLQGRVTISRDNSKNTLYLQMNSLRAEDTAVYYCARSLARTTAMDYWGEGTLVTVSSASTKGPSVFPLAPSSKSTSGGTAALGCLVKDYFPEPVTVSWNSGALTSGVHTFPAVLQSSGLYSLSSVVTVPSSSLGTQTYICNVNHKPSNTKVDKKVEPKSCDKTHTCPPCPAPELLGGDSVFLFPPKPKDTLMISRTPEVTCVVVDVAHEDPEVKFNWYVDGVEVHNAKTKPREEQYNSTYRVVSVLTVLHQDWLNGKEYKCKVSNKALPAPIEKTISKAKGQPREPQVYTLPPSRDELTKNQVSLTCLVKGFYPSDIAVEWESNGQPENNYKTTPPVLDSDGSFFLYSKLTVDKSRWQQGNVFSCSVMHEALHNHYTQESLSLSP light: not shown	59
IL6R-BP116/IL6R-L (antibody, human IgG1, kappa, name in EU numbering, Alterations introduced into IL6R-B3; also called P238D/K326T; copies: 2 + 2) heavy: QVQLQESGPGLVKPSETLSLTCAVSGHSISHDHAWSWVRQPPGEGLEWIGFISYSGITNYNPSLQGRVTISRDNSKNTLYLQMNSLRAEDTAVYYCARSLARTTAMDYWGEGTLVTVSSASTKGPSVFPLAPSSKSTSGGTAALGCLVKDYFPEPVTVSWNSGALTSGVHTFPAVLQSSGLYSLSSVVTVPSSSLGTQTYICNVNHKPSNTKVDKKVEPKSCDKTHTCPPCPAPELLGGDSVFLFPPKPKDTLMISRTPEVTCVVVDVSHEDPEVKFNWYVDGVEVHNAKTKPREEQYNSTYRVVSVLTVLHQDWLNGKEYKCKVSNTALPAPIEKTISKAKGQPREPQVYTLPPSRDELTKNQVSLTCLVKGFYPSDIAVEWESNGQPENNYKTTPPVLDSDGSFFLYSKLTVDKSRWQQGNVFSCSVMHEALHNHYTQESLSLSP light: not shown	72
IL6R-BP102/IL6R-L (antibody, human IgG1, kappa, name in EU numbering, Alterations introduced into IL6R-B3; also called P238D/S267Q; copies: 2 + 2) heavy: QVQLQESGPGLVKPSETLSLTCAVSGHSISHDHAWSWVRQPPGEGLEWIGFISYSGITNYNPSLQGRVTISRDNSKNTLYLQMNSLRAEDTAVYYCARSLARTTAMDYWGEGTLVTVSSASTKGPSVFPLAPSSKSTSGGTAALGCLVKDYFPEPVTVSWNSGALTSGVHTFPAVLQSSGLYSLSSVVTVPSSSLGTQTYICNVNHKPSNTKVDKKVEPKSCDKTHTCPPCPAPELLGGDSVFLFPPKPKDTLMISRTPEVTCVVVDVQHEDPEVKFNWYVDGVEVHNAKTKPREEQYNSTYRVVSVLTVLHQDWLNGKEYKCKVSNKALPAPIEKTISKAKGQPREPQVYTLPPSRDELTKNQVSLTCLVKGFYPSDIAVEWESNGQPENNYKTTPPVLDSDGSFFLYSKLTVDKSRWQQGNVFSCSVMHEALHNHYTQESLSLSP light: not shown	82
IL6R-BP078/IL6R-L (antibody, human IgG1, kappa, name in EU numbering, Alterations introduced into IL6R-B3; also called P238D/A330M; copies: 2 + 2) heavy: QVQLQESGPGLVKPSETLSLTCAVSGHSISHDHAWSWVRQPPGEGLEWIGFISYSGITNYNPSLQGRVTISRDNSKNTLYLQMNSLRAEDTAVYYCARSLARTTAMDYWGEGTLVTVSSASTKGPSVFPLAPSSKSTSGGTAALGCLVKDYFPEPVTVSWNSGALTSGVHTFPAVLQSSGLYSLSSVVTVPSSSLGTQTYICNVNHKPSNTKVDKKVEPKSCDKTHTCPPCPAPELLGGDSVFLFPPKPKDTLMISRTPEVTCVVVDVSHEDPEVKFNWYVDGVEVHNAKTKPREEQYNSTYRVVSVLTVLHQDWLNGKEYKCKVSNKALPMPIEKTISKAKGQPREPQVYTLPPSRDELTKNQVSLTCLVKGFYPSDIAVEWESNGQPENNYKTTPPVLDSDGSFFLYSKLTVDKSRWQQGNVFSCSVMHEALHNHYTQESLSLSP light: not shown	78
IL6R-2B171/IL6R-L (antibody, human IgG1, kappa, name in EU numbering, Alterations introduced into IL6R-B3; also called P238D/V323L; copies: 2 + 2) heavy: QVQLQESGPGLVKPSETLSLTCAVSGHSISHDHAWSWVRQPPGEGLEWIGFISYSGITNYNPSLQGRVTISRDNSKNTLYLQMNSLRAEDTAVYYCARSLARTTAMDYWGEGTLVTVSSASTKGPSVFPLAPSSKSTSGGTAALGCLVKDYFPEPVTVSWNSGALTSGVHTFPAVLQSSGLYSLSSVVTVPSSSLGTQTYICNVNHKPSNTKVDKKVEPKSCDKTHTCPPCPAPELLGGDSVFLFPPKPKDTLMISRTPEVTCVVVDVSHEDPEVKFNWYVDGVEVHNAKTKPREEQYNSTYRVVSVLTVLHQDWLNGKEYKCKLSNKALPAPIEKTISKAKGQPREPQVYTLPPSRDELTKNQVSLTCLVKGFYPSDIAVEWESNGQPENNYKTTPPVLDSDGSFFLYSKLTVDKSRWQQGNVFSCSVMHEALHNHYTQESLSLSP light: not shown	57
IL6R-BP107/IL6R-L (antibody, human IgG1, kappa, name in EU numbering, Alterations introduced into IL6R-B3; also called P238D/H268E; copies: 2 + 2) heavy: QVQLQESGPGLVKPSETLSLTCAVSGHSISHDHAWSWVRQPPGEGLEWIGFISYSGITNYNPSLQGRVTISRDNSKNTLYLQMNSLRAEDTAVYYCARSLARTTAMDYWGEGTLVTVSSASTKGPSVFPLAPSSKSTSGGTAALGCLVKDYFPEPVTVSWNSGALTSGVHTFPAVLQSSGLYSLSSVVTVPSSSLGTQTYICNVNHKPSNTKVDKKVEPKSCDKTHTCPPCPAPELLGGDSVFLFPPKPKDTLMISRTPEVTCVVVDVSEEDPEVKFNWYVDGVEVHNAKTKPREEQYNSTYRVVSVLTVLHQDWLNGKEYKCKVSNKALPAPIEKTISKAKGQPREPQVYTLPPSRDELTKNQVSLTCLVKGFYPSDIAVEWESNGQPENNYKTTPPVLDSDGSFFLYSKLTVDKSRWQQGNVFSCSVMHEALHNHYTQESLSLSP light: not shown	63
IL6R-2B172/IL6R-L (antibody, human IgG1, kappa, name in EU numbering, Alterations introduced into IL6R-B3; also called P238D/V323M; copies: 2 + 2) heavy: QVQLQESGPGLVKPSETLSLTCAVSGHSISHDHAWSWVRQPPGEGLEWIGFISYSGITNYNPSLQGRVTISRDNSKNTLYLQMNSLRAEDTAVYYCARSLARTTAMDYWGEGTLVTVSSASTKGPSVFPLAPSSKSTSGGTAALGCLVKDYFPEPVTVSWNSGALTSGVHTFPAVLQSSGLYSLSSVVTVPSSSLGTQTYICNVNHKPSNTKVDKKVEPKSCDKTHTCPPCPAPELLGGDSVFLFPPKPKDTLMISRTPEVTCVVVDVSHEDPEVKFNWYVDGVEVHNAKTKPREEQYNSTYRVVSVLTVLHQDWLNGKEYKCKMSNKALPAPIEKTISKAKGQPREPQVYTLPPSRDELTKNQVSLTCLVKGFYPSDIAVEWESNGQPENNYKTTPPVLDSDGSFFLYSKLTVDKSRWQQGNVFSCSVMHEALHNHYTQESLSLSP light: not shown	48

Reference: US20240279325A1 (Chugai, published 2024)
